Assay results as given in paper PMC8287531 (The Journal of Cell Biology, 2021).

Legend:
[1] = molecular target: T1, TLNRD1 four-helix domain (TLNRD1-4H, residues 143-273) (human, UniProt Q9H1K6 143-273); experiment: fluorescence polarisation; serial dilution of protein against 100 nM fluorescein- or BODIPY-TMR-coupled peptide; 20°C; one-site total binding equation; triplicate; details: both partners purified
T1 construct: Human TLNRD1 four-helix domain, residues 143-273, sub-cloned into pET151; Density was traced for residues 148-270 in PDB 6XZ3; also called 4H domain

talin R7R8 rod domains = molecular target: T2, talin R7R8 rod domains (UniProt Q9Y490 1359-1659); experiment: as above; details: both partners purified
T2 construct: Talin R7R8 rod domains; the construct used in the assays is not described in the methods
T2 sequence (Q9Y490 1359-1659): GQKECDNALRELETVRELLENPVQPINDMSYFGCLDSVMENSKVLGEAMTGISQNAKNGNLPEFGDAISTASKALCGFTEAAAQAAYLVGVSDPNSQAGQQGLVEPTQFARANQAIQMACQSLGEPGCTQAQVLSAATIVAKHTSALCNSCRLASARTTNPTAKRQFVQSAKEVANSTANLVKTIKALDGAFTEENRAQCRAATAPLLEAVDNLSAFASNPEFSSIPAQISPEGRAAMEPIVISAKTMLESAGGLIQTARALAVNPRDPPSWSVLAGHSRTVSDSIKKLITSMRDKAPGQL

T1 sequence (Q9H1K6 143-273): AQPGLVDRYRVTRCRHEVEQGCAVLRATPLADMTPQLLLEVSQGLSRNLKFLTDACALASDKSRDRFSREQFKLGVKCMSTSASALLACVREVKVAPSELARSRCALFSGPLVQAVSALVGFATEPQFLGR

| Binder | Kd [1] [µM] | Kd (talin R7R8 rod domains) [µM] |
| --- | --- | --- |
| EDQDLDKMFGAWLGELDRLTQSLDSDKC (coupled with either a fluorescein or BODIPY-TMR dye (which one is not stated for this peptide), Lamellipodin residues 20-46; added C-terminal cysteine residue; source: synthetic peptide (GLBiochem, Shanghai)) [lamellipodin(20-46) peptide] | 9 |  |
| PYFVETPYGFQLDLDFVKYVDDIQKGNTIKKC (BODIPY-labeled, KANK1 KN domain LD motif, residues 30-60; added C-terminal cysteine residue; also called KANK1 KN domain LD motif (residues 30-60); source: synthetic peptide (GLBiochem, Shanghai)) [KANK1(30-60) peptide, KN domain LD motif, BODIPY-labeled] |  | 0.35 |
